This assay concerns the target yeast dynein_(MOTOR)^MT-B (microtubule-bound mutant of the motor domain) (budding yeast | T. thermophilus) (UniProt P34945). Briefly: mass photometry.

yeast dynein_(MOTOR)^MT-B (microtubule-bound mutant of the motor domain) (budding yeast | T. thermophilus), sequence (P34945 whole entry, change not shown, the tested form may be a part): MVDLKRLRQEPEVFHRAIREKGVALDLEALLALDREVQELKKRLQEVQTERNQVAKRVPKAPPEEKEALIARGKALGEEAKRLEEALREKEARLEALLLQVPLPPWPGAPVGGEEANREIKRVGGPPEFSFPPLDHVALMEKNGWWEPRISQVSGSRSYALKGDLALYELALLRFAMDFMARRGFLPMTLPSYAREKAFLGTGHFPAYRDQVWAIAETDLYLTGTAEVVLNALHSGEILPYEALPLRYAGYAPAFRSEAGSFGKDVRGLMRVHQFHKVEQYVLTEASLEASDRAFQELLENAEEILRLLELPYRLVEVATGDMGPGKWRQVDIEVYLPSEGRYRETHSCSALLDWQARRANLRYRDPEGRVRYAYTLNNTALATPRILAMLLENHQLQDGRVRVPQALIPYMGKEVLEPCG

B1: Pac1-SNAP (natural protein)
chain: MTNWQQQLPLTDTQKNELDKSVLRYLNWNYKQTVRHEHAQDYESVRHAIVTLSGFLLQESVDRQEFISNNDTSNESMVDIDELLLPKKWNSIVRLQKKIIELEQNTETLVSQIKDLNTQVSELAQFKPTTSNGTSAHNVLKWIPRNLPSCLINVESSVTSVKLHPNLPIVFVATDHGKLYAFDLFNYTIPLASLQSHTKAITSMDVLFTNYTNSSKKNYLVIVTASKDLQIHVFKWVSEECKFQQIRSLLGHEHIVSAVKIWQKNNDVHIASCSRDQTVKIWDFHNGWSLKTFQPHSQWVRSIDVLGDYIISGSHDTTLRLTHWPSGNGLSVGTGHEFPIEKVKFIHFIEDSPEIRFRTPSTDRYKNWGMQYCVSASRDRTIKIWEIPLPTLMAHRAPIPNPTDSNFRCVLTLKGHLSWVRDISIRGQYLFSCADDKSVRCWDLNTGQCLHVWEKLHTGFVNCLDLDVDFDSNVTPRQMMVTGGLDCKSNVFMR
modifications: JF646-SNAP-tag ligand on the SNAP tag (fluorescent labelling)
Regarding B1, the stoichiometry N (Pac1 dimer per dynein (MOTOR) monomer) turned out to be 1.

The values are drawn from doi:10.1101/2022.11.08.515461 (bioRxiv, 2022).
